Test results as given in US20210205411A1, “CCR5 INHIBITOR FOR USE IN TREATING CANCER” (ORION BIOTECHNOLOGY SWITZERLAND SÀRL, priority 2018, published 2021).

T1: recombinant human CCR3 (Homo sapiens, UniProt P51677)
T1 construct: host or cells: CHO-K1 cells (membrane extracts)
T1 sequence (P51677 1-355): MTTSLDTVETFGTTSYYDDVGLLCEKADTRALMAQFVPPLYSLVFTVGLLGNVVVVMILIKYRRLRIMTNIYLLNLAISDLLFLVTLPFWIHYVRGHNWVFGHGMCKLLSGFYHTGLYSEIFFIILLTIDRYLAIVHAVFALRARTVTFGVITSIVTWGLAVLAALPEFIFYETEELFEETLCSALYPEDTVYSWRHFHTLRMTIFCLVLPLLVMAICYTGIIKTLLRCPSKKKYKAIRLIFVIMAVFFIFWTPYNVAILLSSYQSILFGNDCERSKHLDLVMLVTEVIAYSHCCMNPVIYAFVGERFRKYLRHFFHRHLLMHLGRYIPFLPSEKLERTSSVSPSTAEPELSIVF

T2: recombinant human CCR1 (Homo sapiens, UniProt P32246)
T2 construct: host or cells: CHO-K1 cells (membrane extracts)
T2 sequence (P32246 1-355): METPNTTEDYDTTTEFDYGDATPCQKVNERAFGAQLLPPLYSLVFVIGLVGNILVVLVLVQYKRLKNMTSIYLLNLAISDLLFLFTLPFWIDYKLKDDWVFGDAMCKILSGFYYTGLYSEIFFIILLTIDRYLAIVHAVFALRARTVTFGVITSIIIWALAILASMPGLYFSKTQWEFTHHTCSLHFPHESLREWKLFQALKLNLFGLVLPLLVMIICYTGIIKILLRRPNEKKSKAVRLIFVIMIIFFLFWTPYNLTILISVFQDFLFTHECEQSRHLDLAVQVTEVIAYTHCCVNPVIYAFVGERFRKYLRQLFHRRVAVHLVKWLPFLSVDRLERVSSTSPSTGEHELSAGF


Assays:
human CCR5 [1] = target: T3, human CCR5 (Homo sapiens, UniProt P51681); experiment: CCR5 signaling inhibition, aequorin calcium sensor in CHO cells, agonist human MIP-1β/CCL4; conditions: read-out: IC50, inhibition of CCR5 signaling (FIG. 1C), CHO cells expressing human CCR5, agonist MIP-1β/CCL4, n=2
Excerpt: The signaling activity measured in the cells at each inhibitor concentration is expressed as a percentage of the signal elicited by the agonist in the absence of inhibitor (n=2) (FIGS. 1A, 1B and 1C).

human CCR5 [2] = target: T3, human CCR5; experiment: cell-based or functional assay
recombinant human CCR3 = target: T1, recombinant human CCR3; experiment: GTPγ35S functional assay, inhibition testing, CCR3; type: biochemical; conditions: CHO-K1 membrane extracts; reference agonist at EC80; FIG. 3B
Protocol: (§1) Assay buffer was 20 mM HEPES pH 7.4; 200mM NaCl, 10 μg/ml saponin, MgCl2 at optimized concentration for the specific receptor, 0.1% BSA. CHO-K1 cells expressing recombinant human receptor membrane extracts were thawed on ice, diluted in assay buffer and kept on ice. GDP was diluted in assay buffer to give optimized concentration for the specific receptor. Beads were PVT-WGA (PerkinElmer, RPNQ001), diluted in assay buffer at a concentration optimized for the specific receptor. GTPγ^35S (PerkinElmer NEG030X) was diluted in assay buffer to give 0.1 nM.
(§2) For inhibition testing, membranes were mixed with GDP and incubated for at least 15 min on ice. In parallel, GTPγ^35S was mixed with the beads just before starting the reaction. The following reagents were successively added in the wells of an Optiplate (PerkinElmer): 50 μL of test or reference ligand, 20 μL of the membranes:GDP mix, 10 μL of reference agonist at historical EC80 and 20 μL of the GTPγ^35S:beads mix.
(§3) The plates were covered with a top seal, mixed on an orbital shaker for 2 min, and then incubated for 1 hour at room temperature. Then the plates were centrifuged for 10 min at 2000 rpm, incubated at room temperature for 1 hour and counted for 1 min/well with a PerkinElmer TopCount reader. […]
(§4) Dose-response data were analyzed with XLfit (IDBS) software using nonlinear regression applied to a sigmoidal dose-response model.

[3] = Preclinical single dose intravenous infusion, rats; type: in vivo; conditions: 20 mg/kg
Excerpt: (§5) These findings indicate that this N-terminally modified RANTES variant and its structurally related analogs have enhanced efficacy compared to MVC which is known to be therapeutically effective against several types of cancer, with very little side effects.

[4] = Preclinical single dose intravenous infusion, cynomolgus macaques; type: in vivo; conditions: 20 mg/kg
Excerpt: as §5

recombinant human CCR1 = target: T2, recombinant human CCR1; experiment: GTPγ35S functional assay, inhibition testing, CCR1; type: biochemical; conditions: FIG. 3A
Protocol: as §1, §2, §3, §4

[5] = tested on: CT-26 colorectal cancer cell line; experiment: CT-26 colorectal cancer animal model; type: in vivo, BALB/c mice; conditions: for tumor growth / mean tumor volume: intraperitoneal
Excerpt: In one experiment, BALB/c mice were inoculated subcutaneously with the CT-26 colorectal cancer cell line. […] Treatment was given daily or every third day.
In another experiment, BALB/c mice were inoculated subcutaneously with the CT-26 colorectal cancer cell line. […] 5P12-RANTES treatment was given five times a week.

HIV-1BaL = experiment: HIV-1 replication assay in peripheral blood mononuclear cells; type: cell-based; conditions: PBMC from a panel of US donors, FIG. 2
Protocol: For each donor, each compound was evaluated at 9 concentrations in triplicate. Each point represents log IC50 for an individual donor.

T3 sequence (P51681 whole entry): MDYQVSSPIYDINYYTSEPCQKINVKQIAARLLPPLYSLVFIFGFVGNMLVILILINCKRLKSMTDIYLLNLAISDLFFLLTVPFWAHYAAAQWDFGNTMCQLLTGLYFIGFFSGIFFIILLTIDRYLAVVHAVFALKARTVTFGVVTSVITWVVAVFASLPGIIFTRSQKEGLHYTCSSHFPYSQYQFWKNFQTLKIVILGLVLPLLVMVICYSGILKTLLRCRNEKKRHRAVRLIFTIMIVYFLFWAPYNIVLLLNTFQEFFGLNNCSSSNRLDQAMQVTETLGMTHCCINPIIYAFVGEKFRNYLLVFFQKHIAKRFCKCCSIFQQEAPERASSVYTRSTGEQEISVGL

Molecule	IC50 (human CCR5 [1])	IC50 of inhibition of CCL4-induced CCR5 signaling (aequorin calcium sensor, CHO cells), FIG. 1C (human CCR5 [2])	antagonism towards CCR3 (recombinant human CCR3)	adverse events [3]	adverse events [4]	antagonism of CCR1 (recombinant human CCR1; CHO-K1 membrane extracts, reference agonist at EC80)	potentiation of CCR1 signaling (recombinant human CCR1; at the highest concentrations)	adverse events during treatment ([5]; anti-CTLA-4 experiment, start ten days after inoculation)	adverse events during treatment ([5]; anti-PD-1 experiment, start three days after inoculation)	tumor growth / mean tumor volume ([5]; start ten days after inoculation, five times a week, anti-CTLA-4 experiment, FIG. 4B)	tumor growth / mean tumor volume ([5]; start three days after inoculation, daily or every third day, anti-PD-1 experiment, FIG. 4A)	times more potent than MVC in inhibiting HIV-1 replication (HIV-1BaL)
PRO-140 (antibody, INN chains, looked up, V domains shown) VH: EVQLVESGGGLVKPGGSLRLSCAASGYTFSNYWIGWVRQAPGKGLEWIGDIYPGGNYIRNNEKFKDKTTLSADTSKNTAYLQMNSLKTEDTAVYYCGSSFGSNYVFAWFTYWGQGTLVTVSS VL: DIVMTQSPLSLPVTPGEPASISCRSSQRLLSSYGHTYLHWYLQKPGQSPQLLIYEVSNRFSGVPDRFSGSGSGTDFTLKISRVEAEDVGVYYCSQSTHVPLTFGQGTKVEIK	5.6 nM	5.6 nM	–	–	–	–	–	–	–	–	–	–
5P12-RANTES: N-terminally modified RANTES variant (SEQ ID NO: 70), CCR5 inhibitor (protein, ends and bridges not checked) QGPPLMATQSCCFAYIARPLPRAHIKEYFYTSGKCSNPAVVFVTRKNRQVCANPEKKWVREYINSLEMS	–	–	no antagonism	without any adverse events	without any adverse events	no antagonism	moderate level of potentiation	No adverse events	No significant adverse events	delayed tumor growth at multiple time-points	statistically significant delayed tumor growth at multiple time-points	10-30 times
